Consider 6 molecules from patent publication US20160083713.

Data set [1] concerns T1, Protein 3: Erythrobacter sp. SD-21 PAL-like domain with N-terminal TAP purification tag (ribosomal protein L9 from T. maritima) and HRV14 3C protease site linker.
T1 sequence: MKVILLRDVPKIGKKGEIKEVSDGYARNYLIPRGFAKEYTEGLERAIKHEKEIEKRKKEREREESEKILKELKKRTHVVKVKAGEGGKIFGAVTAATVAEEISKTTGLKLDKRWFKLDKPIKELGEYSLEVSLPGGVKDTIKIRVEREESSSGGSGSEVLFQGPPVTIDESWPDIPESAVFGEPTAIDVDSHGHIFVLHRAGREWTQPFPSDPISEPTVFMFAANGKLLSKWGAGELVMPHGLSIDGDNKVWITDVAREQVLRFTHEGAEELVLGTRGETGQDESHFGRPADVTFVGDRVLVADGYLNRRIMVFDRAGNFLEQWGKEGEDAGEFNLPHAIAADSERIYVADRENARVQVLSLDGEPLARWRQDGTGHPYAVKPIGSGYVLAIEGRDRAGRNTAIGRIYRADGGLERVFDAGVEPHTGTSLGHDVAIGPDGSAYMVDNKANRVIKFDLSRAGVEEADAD

Data set [2] deals with T2, Protein 8: Exiguobacterium PAL-like domain with N-terminal TAP purification tag and HRV14 3C protease site linker.
T2 sequence: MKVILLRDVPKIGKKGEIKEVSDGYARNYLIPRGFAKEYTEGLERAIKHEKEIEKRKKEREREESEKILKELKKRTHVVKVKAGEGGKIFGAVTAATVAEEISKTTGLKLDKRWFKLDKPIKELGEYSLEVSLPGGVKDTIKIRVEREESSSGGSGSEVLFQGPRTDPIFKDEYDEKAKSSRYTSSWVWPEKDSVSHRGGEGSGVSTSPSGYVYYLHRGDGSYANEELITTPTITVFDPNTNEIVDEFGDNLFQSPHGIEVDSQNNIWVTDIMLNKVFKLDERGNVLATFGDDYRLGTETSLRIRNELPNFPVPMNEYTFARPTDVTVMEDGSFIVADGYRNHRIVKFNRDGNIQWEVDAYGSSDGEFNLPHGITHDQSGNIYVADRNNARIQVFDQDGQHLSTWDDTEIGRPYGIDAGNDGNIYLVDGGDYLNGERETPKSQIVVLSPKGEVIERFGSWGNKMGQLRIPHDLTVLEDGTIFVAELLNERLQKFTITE

Data set [3] deals with T3, TAP tagged amylin analog model peptide (SEQ ID NO:17), alpha-hydroxyglycine intermediate form.
T3 chain: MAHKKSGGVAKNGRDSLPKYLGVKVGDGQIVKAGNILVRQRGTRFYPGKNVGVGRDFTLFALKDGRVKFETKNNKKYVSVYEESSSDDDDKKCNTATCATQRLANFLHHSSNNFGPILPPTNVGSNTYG

Data set [4] deals with C-terminal alpha-hydroxyglycine extended Pramlintide (alpha-hydroxylated SEQ ID NO:25).
Data set [5] addresses C-terminally Gly-extended Pramlintide (SEQ ID NO: 25).
The target in data set [6] is T4, TAP tagged C-terminal Gly extended amylin analog model peptide (SEQ ID NO:17), precursor form.
T4 chain: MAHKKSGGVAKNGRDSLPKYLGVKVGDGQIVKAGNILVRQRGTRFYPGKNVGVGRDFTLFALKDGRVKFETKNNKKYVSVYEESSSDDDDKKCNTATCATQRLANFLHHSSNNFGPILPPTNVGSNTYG

Turning to “TAP tagged HRV14 3C protease (from WO 2008/043847)”, in data set [1], the “proteolytic cleavage at the linker, LC-MS and SDS-PAGE, overnight at 30 C, enzyme to substrate 1:25” value was “resulted in two fragments determined to 33323 Da and 18284.78 Da corresponding to the released PAL-like domain ... and to the released purification tag and HRV14 3C linker”. For the same molecule, the “proteolytic cleavage at the linker, SDS-PAGE, overnight, enzyme to substrate 1:25” value in data set [2] was “two fragments corresponding to the mature Exiguibacterium PAL-like domain (SEQ ID NO:2) (upper band) and the released TAP tag (SEQ ID NO:7-SEQ ID NO:8) (lower band) was present in the application”.

B1: Protein 10: Planctomyces DSM 8797 PAL-like domain with N-terminal TAP purification tag and HRV14 3C protease site linker (protein)
chain: MKVILLRDVPKIGKKGEIKEVSDGYARNYLIPRGFAKEYTEGLERAIKHEKEIEKRKKEREREESEKILKELKKRTHVVKVKAGEGGKIFGAVTAATVAEEISKTTGLKLDKRWFKLDKPIKELGEYSLEVSLPGGVKDTIKIRVEREESSSGGSGSEVLFQGPADKIDFEPAAINIELPEGLALGPASAVDFDSKGRMYLFHRGPQPILVFDQSGKFVRSWGDKLISQAHGLRVAPDETIWVTDIGNHMVFQFNPEGKLLLALGQAGKPGDSQDQFNKPTDIAFGPQGEFYISDGYGNSRVMKFAANGKNLGQWGTPGKGPGEFNLPHSILVDAKGRVLVGDRENDRVQIFDLEGNLLEIWTGFAPYGMEFDSRGNLFVADGRANKVLQLNASGKVENSWGKTGKEPGEYNLPHMLAVDAAGNLFVTEIGGKRLQKLQRK
For B1, the “conversion to the alpha amidated form, LC-MS, co-incubation with rat PHM at 37 C” value in data set [3] was “With protein 10 total conversion of the precursor was observed already after 1 h-2 h incubation”.

B2: Protein 3: Erythrobacter sp. SD-21 PAL-like domain with N-terminal TAP purification tag (ribosomal protein L9 from T. maritima) and HRV14 3C protease site … (protein)
chain: MKVILLRDVPKIGKKGEIKEVSDGYARNYLIPRGFAKEYTEGLERAIKHEKEIEKRKKEREREESEKILKELKKRTHVVKVKAGEGGKIFGAVTAATVAEEISKTTGLKLDKRWFKLDKPIKELGEYSLEVSLPGGVKDTIKIRVEREESSSGGSGSEVLFQGPPVTIDESWPDIPESAVFGEPTAIDVDSHGHIFVLHRAGREWTQPFPSDPISEPTVFMFAANGKLLSKWGAGELVMPHGLSIDGDNKVWITDVAREQVLRFTHEGAEELVLGTRGETGQDESHFGRPADVTFVGDRVLVADGYLNRRIMVFDRAGNFLEQWGKEGEDAGEFNLPHAIAADSERIYVADRENARVQVLSLDGEPLARWRQDGTGHPYAVKPIGSGYVLAIEGRDRAGRNTAIGRIYRADGGLERVFDAGVEPHTGTSLGHDVAIGPDGSAYMVDNKANRVIKFDLSRAGVEEADAD
Turning to B2, in data set [3], the “conversion to the alpha amidated form, LC-MS, co-incubation with rat PHM at 37 C” value is listed as “near complete conversion to the alpha amidated form required 5 hours incubation with the protein 3 enzyme”.

B3: Erythrobacter PAL-like domain (SEQ ID NO: 1) (protein)
chain: GPPVTIDESWPDIPESAVFGEPTAIDVDSHGHIFVLHRAGREWTQPFPSDPISEPTVFMFAANGKLLSKWGAGELVMPHGLSIDGDNKVWITDVAREQVLRFTHEGAEELVLGTRGETGQDESHFGRPADVTFVGDRVLVADGYLNRRIMVFDRAGNFLEQWGKEGEDAGEFNLPHAIAADSERIYVADRENARVQVLSLDGEPLARWRQDGTGHPYAVKPIGSGYVLAIEGRDRAGRNTAIGRIYRADGGLERVFDAGVEPHTGTSLGHDVAIGPDGSAYMVDNKANRVIKFDLSRAGVEEADAD
On to B3, for which the “conversion of the alpha-hydroxyglycine intermediate to alpha amidated Pramlintide, LC-MS, 37 C, 1 h” value in data set [4] is on record as “could almost completely convert the peptide substrate to fully alpha-amidated peptide using a enzyme to substrate ratio of 1:100”.

B4: rat PHM domain (amino acids 36 to 497 of the 976 aa full-length rat PAM sequence), His tagged (protein)
chain: FKETTRSFSNECLGTIGPVTPLDASDFALDIRMPGVTPKESDTYFCMSMRLPVDEEAFVIDFKPRASMDTVHHMLLFGCNMPSSTGSYWFCDEGTCTDKANILYAWARNAPPTRLPKGVGFRVGGETGSKYFVLQVHYGDISAFRDNHKDCSGVSVHLTRVPQPLIAGMYLMMSVDTVIPPGEKVVNADISCQYKMYPMHVFAYRVHTHHLGKVVSGYRVRNGQWTLIGRQNPQLPQAFYPVEHPVDVTFGDILAARCVFTGEGRTEATHIGGTSSDEMCNLYIMYYMEAKYALSFMTCTKNVAPDMFRTIPAEANIPIPVKPDMVMMHGHHKEAENKEKSALMQQPKQGEEEVLEQGDFYSLLSKLLGEREDVHVHKYNPTEKTESGSDLVAEIANVVQKKDLGRSDAREGAEHEEWGNAILVRDRIHRFHQLESTLRPAESRAFSFQQPGEGPWEPEPSG
In the case of B4, the “conversion of Gly-extended Pramlintide to the alpha-hydroxyglycine form, LC-MS, enzyme to substrate 1:20 (w/w), 37 C, 2 h” value in data set [5] is recorded as “it was verified that the intermediate alpha-hydroxyglycine form of Pramlintide was obtained”. In addition, the “conversion of the C-terminal Gly to alpha-hydroxyglycine, LC-MS after 2 hours at 37 C” value in data set [6] is “the vast majority of the model peptide was on the intermediate form comprising a α-hydroxyglycine in the C-terminal”.

B5: Planctomyces PAL-like domain (SEQ ID NO: 4) (protein)
chain: GPADKIDFEPAAINIELPEGLALGPASAVDFDSKGRMYLFHRGPQPILVFDQSGKFVRSWGDKLISQAHGLRVAPDETIWVTDIGNHMVFQFNPEGKLLLALGQAGKPGDSQDQFNKPTDIAFGPQGEFYISDGYGNSRVMKFAANGKNLGQWGTPGKGPGEFNLPHSILVDAKGRVLVGDRENDRVQIFDLEGNLLEIWTGFAPYGMEFDSRGNLFVADGRANKVLQLNASGKVENSWGKTGKEPGEYNLPHMLAVDAAGNLFVTEIGGKRLQKLQRK
As for B5, the “conversion of the alpha-hydroxyglycine intermediate to alpha amidated Pramlintide, LC-MS, 37 C, 1 h” value in data set [4] was “could almost completely convert the peptide substrate to fully alpha-amidated peptide using a enzyme to substrate ratio of 1:100”.
